T1: α11β1 expressed on the surface of CHO-K1 cells (Homo sapiens, UniProt Q9UKX5)
T1 construct: expressed in transfected cells; host or cells: CHO-K1
T1 sequence (Q9UKX5 23-1188): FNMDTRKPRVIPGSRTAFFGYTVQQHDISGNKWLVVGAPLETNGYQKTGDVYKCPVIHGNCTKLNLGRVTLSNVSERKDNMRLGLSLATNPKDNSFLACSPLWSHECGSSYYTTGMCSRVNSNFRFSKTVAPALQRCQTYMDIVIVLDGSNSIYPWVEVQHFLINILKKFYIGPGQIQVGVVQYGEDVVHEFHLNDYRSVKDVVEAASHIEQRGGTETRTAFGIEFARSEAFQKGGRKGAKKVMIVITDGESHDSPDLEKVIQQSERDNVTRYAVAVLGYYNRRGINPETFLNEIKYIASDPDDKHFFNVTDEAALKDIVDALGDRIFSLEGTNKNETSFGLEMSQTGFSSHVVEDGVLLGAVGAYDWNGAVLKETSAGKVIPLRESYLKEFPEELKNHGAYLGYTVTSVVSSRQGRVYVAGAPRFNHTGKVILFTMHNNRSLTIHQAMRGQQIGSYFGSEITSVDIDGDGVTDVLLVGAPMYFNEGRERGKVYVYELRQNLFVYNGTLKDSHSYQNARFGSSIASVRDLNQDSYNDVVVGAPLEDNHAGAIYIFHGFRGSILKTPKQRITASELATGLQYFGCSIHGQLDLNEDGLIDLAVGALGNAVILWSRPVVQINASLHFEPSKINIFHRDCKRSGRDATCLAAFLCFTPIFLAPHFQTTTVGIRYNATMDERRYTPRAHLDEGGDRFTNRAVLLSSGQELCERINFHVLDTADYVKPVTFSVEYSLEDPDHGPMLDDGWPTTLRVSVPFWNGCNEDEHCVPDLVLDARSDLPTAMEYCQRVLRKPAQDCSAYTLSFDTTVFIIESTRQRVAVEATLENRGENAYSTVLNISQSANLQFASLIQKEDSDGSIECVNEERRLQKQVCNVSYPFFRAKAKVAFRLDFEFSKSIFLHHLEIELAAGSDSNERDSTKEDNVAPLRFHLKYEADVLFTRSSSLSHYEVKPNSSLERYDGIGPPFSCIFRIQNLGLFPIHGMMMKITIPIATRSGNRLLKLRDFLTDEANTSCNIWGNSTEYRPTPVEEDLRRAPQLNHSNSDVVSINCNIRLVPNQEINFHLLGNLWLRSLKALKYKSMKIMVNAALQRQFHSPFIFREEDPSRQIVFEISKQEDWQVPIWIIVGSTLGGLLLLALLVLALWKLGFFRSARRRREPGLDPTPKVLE

B1: 6-M8: mouse anti-α11β1 mAb; VH SEQ ID NO: 129, VL SEQ ID NO: 130 (antibody, V domains shown)
VH: QVQLQQPGAELVMPGASVKLSCKASGYTFTNYWMHWVKQRPGQGLEWIGEIDPSDSYTNYNQKFKGKATLTVDKSSSTAYMQLSSLTSEDSAVYYCTRQGSTYAWGQGTSVTVSS
VL: DIVMTQAAFSNPVTLGTSASISCRSSKSLLHSNGITYLYWYLQKPGQSPQLLIYQMSNLASGVPDRFSSSGSGTDFTLRISRVEAEDVGVYYCAQNLELPPTFGGGTKLEIK
B2: 7D8B10: rat anti-α11β1 mAb; VH SEQ ID NO: 153, VL SEQ ID NO: 154 (antibody, V domains shown)
VH: MDLRLTYVFIVAILKGVLCEVKLEESGGGLVQPGMSVKLSCATSGFIFSDYWMEWVRQAPGKGLEWVAEIRNKANNYATYYGKSMKGRFTISRDDSKSIVYLQVNSIRSEDTAIYYCAPNFDYWGQGVMVTVSS
VL: MSPVQSLFLLLLWILGTHGDVVLTQTPPTLSATIGQSVSISCRSSQSLLHSTGNTYLNWLLQRPGQPPQLLIYLVSRLESGVPNRFSASGSGTDFTLKISGIEAEDLGVYYCVQSSHTPYTFGTGTKLELK
B3: 6F9: rabbit anti-α11β1 mAb; heavy chain SEQ ID NO: 183, light chain SEQ ID NO: 184 (antibody)
heavy: METGLRWLLLVAVLKGVQCQSLEESGGDLVKPGASLTLTCTASGSSFSSTYWNCWVRQAPGKGLEWIACINAGSGTTYYASWAKGRFTVSKTSSTTVTLQMTSLTAADTATYFCTRDSDGRFSSGYYFNLWGPGTLVTVSSGQPKAPSVFPLAPCCGDTPSSTVTLGCLVKGYLPEPVTVTWNSGTLTNGVRTFPSVRQSSGLYSLSSVVSVTSSSQPVTCNVAHPATNTKVDKTVAPSTCSKPMCPPPELPGGPSVFIFPPKPKDTLMISRTPEVTCVVVDVSQDDPEVQFTWYINNEQVRTARPPLREQQFNSTIRVVSTLPIAHQDWLRGKEFKCKVHNKALPAPIEKTISKARGQPLEPKVYTMGPPREELSSRSVSLTCMINGFYPSDISVEWEKNGKAEDNYKTTPTVLDSDGSYFLYSKLSVPTSEWQRGDVFTCSVMHEALHNHYTQKSISRSPGK
light: MDTRAPTQLLGLLLLWLPGATFAQVLTQTASPVSAAVGGTVTINCQSSQSVYDNNWLAWYQQKPGQPPKLLIDDASKLTSGVSSRFKGSGSGTQFTLTISGVQCDDAATYYCQGAYYSSGWYWAFGGGTEVVVKGDPVAPTVLIFPPAADQVATGTVTIVCVANKYFPDVTVTWEVDGTTQTTGIENSKTPQNSADCTYNLSSTLTLTSTQYNSHKEYTCKVTQGTTSVVQSFNRGDC
B4: 9-B11: mouse anti-α11β1 mAb; VH SEQ ID NO: 115, VL SEQ ID NO: 116 (antibody, V domains shown)
VH: QVQLQQPGAELVRPGTSVKLSCKASGYTFTSYWMHWVQQRPGQGLEWIGVIDPSDSYTNYNQKFKGKATLTVDTSSSSAYMQLSSLTSEDSAVYYCARDDVAMDYWGQGTSVTVSS
VL: DIVVTQSPASLAVSLGQRATISCRASESVDSYGNSFIHWYQQKPGQPPKLLIYRASNLKSGIPARFSGSGSRTDFTLTINPVEADDVATYYCQQSNEDPYTFGGGTKLEIK
B5: 6-B21: mouse anti-α11β1 mAb; VH SEQ ID NO: 123, VL SEQ ID NO: 124 (antibody, V domains shown)
VH: EVQLQQSGPELVKPGASVKISCKASGYTFTDYYMNWVKQSHGKSLEWIGDINPHNGGTSFIQKFKGKATLTVDKSSSTAYMELRSLTSEDSAVYYCAPLGRKEGFAYWGQGTLVTVSA
VL: DTVLTQSPASLVVSLGQRATISCRASKSVSTSGYSYMHWYQQKPGQPPKLLIYLASNLESGVPARFSGSGSGTAFTLNIHPVEEEDAATYYCQHSRELPYTFGGGTKLEIK
B6: 7-H14: mouse anti-α11β1 mAb; VH SEQ ID NO: 121, VL SEQ ID NO: 122 (antibody, V domains shown)
VH: QVQLQQPGAELVRPGASVKLSCKPSGYTFTSYWMNWVKQRPGQGLEWIGMIDPSDSETHYNQMFKDKATLTVDKSSNTAYMQLSSLTSEDSAVYYCAQIYYAYDKAYWGQGTLVTVSA
VL: DIVMSQSPSSLAVSVGEKVTMSCKSSQSLLYSSHQKNYLAWYQQKPGQSPKLLIYWASTRESGVPDRFTGSGSGTDFSLTISSVKAEDLAVYYCQEYYSWTFGGGTKLEIK
B7: 6-A12: mouse anti-α11β1 mAb; VH SEQ ID NO: 127, VL SEQ ID NO: 128 (antibody, V domains shown)
VH: QVTLKESGPGILQPSQTLSLTCSFSGFSLRTFAMGVGWIRQPSGKGLEWLAHIWWDDDKYYNPALKSRLTISKDTSKNQVFLKIANVDTADTATYYCARMPLTFYFDYWGQGTTLTVSS
VL: DVLMTQTPLSLPVSLGDQASISCRSSQSIVHSNGNTYLEWYLQKPGQSPKLLIYKVSTRFSGVPDRFSGSGSGTDFTLKISRVEAEDLGVYYCFQGSHVPFTFGGGTKLEIK
B8: 18E10F10: rat anti-α11β1 mAb; VH SEQ ID NO: 155, VL SEQ ID NO: 156 (antibody, V domains shown)
VH: MDIRLSLVFLVLFMKGVQCEVQLVESGGGLVQPGRSLKLSCAASRFTFSDYNMAWVRQAPKKGLEWVATIYHDDSGSYYRDSVKGRFTISRNNAKSTLYLQMDSLRSEDMATYYCARHNNGFDYWGQGVMVTVAS
VL: MKWPVRLLVLFFWIPASGGDVVMTQTPVSLPVRLGGQASISCRSSQSLVHSNGNTYLHWYLQKPGQSPQLLINRVSNRFSGVPDRFSGSGSGTDFTLKINRVEPEDLGDYYCLQSTHFPLTFGSGTKLETK

Experiments:
[1] = system: Human Pulmonary Fibroblasts; experiment: Fibroblast-to-Myofibroblasts Transition (FMT), αSMA expression; format: cell-based; conditions: Yes/No
Method: Human Pulmonary Fibroblasts (ScienCell) were cultured in complete Fibroblast Growth Medium (ScienCell) until 80% confluent. Cells were washed and harvested using Accutase. Cells were seeded onto tissue culture-treated 96 well plates at 20,000 cells/well in complete Fibroblast Growth Medium. After 24 hours, cells were washed and starved in serum reduced medium for an additional 24 hours. After starvation, cells were treated with TGFβ-1 (R&D Systems) with or without anti-α11 antibodies. A polyclonal rabbit anti-human α11 antibody was used as a positive control. Appropriate IgG isotype controls were also included. After 48 hours, cells were harvested, fixed, permeabilized and stained with AlexaFluor488 Labeled Anti-αSMA (α-smooth muscle actin) (Invitrogen). Cells were acquired on a FACS Verse (Benton Dickson) to determine expression levels of αSMA. Data were analyzed by gating on single cells and determining the geometric Mean Fluorescence Intensity (gMFI) in the FITC channel for each sample. gMFI for each sample was normalized to the untreated control and presented as % inhibition.
In addition to the binding abilities described above, it is important for an anti-α11β1 antibody to inhibit the fibroblast-to-myofibroblast transition (FMT). It is now appreciated that myofibroblasts are a heterogeneous cell population, existing in different activation states, with the main function of producing and contracting collagen extracellular matrix (ECM). FMT is a multi-step event that is controlled by a changing mechanical environment in tissues undergoing repair. TGFβ is one of the potent factors that potentiates this process and alpha smooth muscle actin (αSMA) is one of the main markers that becomes overexpressed when fibroblasts are undergoing the transition to becoming myofibroblasts. The presence of αSMA enhances fibroblast contraction and guides myofibroblast activation through an intracellular feedback loop. Because αSMA is the main molecular marker of myofibroblasts, the ability of the novel anti-α11β1 mAbs to inhibit αSMA expression in TGFβ-induced FMT was tested.

[2] = target: T1, α11β1 expressed on the surface of CHO-K1 cells; experiment: FACS antibody binding to CHO-K1 cells expressing human α11; conditions: binding Yes/No
Method: 200,000 cells (wild-type CHO-K1 cells or CHO-K1 cells expressing human α11) were incubated with each antibody at desired concentrations in FACS buffer for 30 min at 4° C. Then, the cells were washed with FACS buffer and incubated with secondary antibody at 1:100 dilution for 30 minutes at 4° C. Cells were then washed and fixed with 1% PFA in PBS for 20 minutes at room temperature; washed again and read on a cytometer in FACS buffer.
Since integrins are large, transmembrane receptors that exist in different conformational shapes, experiments were performed to confirm that the novel antibodies also bound cell-expressed α11β1. A CHO-K1 cell line that endogenously expressed high levels of the β1 subunit was engineered to stably express human α11 (CHO-K1 hu α11).
Binding EC50 was estimated using data from Fluorescence-activated cell sorting (FACS) performed with CHO-K1 hu α11β1 cells.

Molecule	Inhibition of FMT [1]	CHO-K1 FACS [2]
B1	No	No
B2	Yes	Yes
B3	No	Yes
B4	Yes	Yes
B5	No	No
B6	No	Yes
B7	No	Yes
B8	Yes	Yes

Source: patent publication US12460006B2, “Antibodies against integrin alpha 11 beta 1” (Momenta Pharmaceuticals, Inc., priority 2019, dated 2025)
